Experimental findings from US20130230517A1 are described below.

What is called Kd is the equilibrium constant for the complex coming apart.

This assay has as its target Purified recombinant HuFCRN/B2MG, biotinylated (human) (UniProt P55899). As to the kind of experiment: BLI (ForteBio Octet); biotinylated HuFCRN/B2MG on SA biosensors. Background: Biolayer interferometry detects binding as a change in optical thickness at a sensor tip.
Chain of UniProt P55899 (P55899 24-297 limits assumed, chain 1 of 2): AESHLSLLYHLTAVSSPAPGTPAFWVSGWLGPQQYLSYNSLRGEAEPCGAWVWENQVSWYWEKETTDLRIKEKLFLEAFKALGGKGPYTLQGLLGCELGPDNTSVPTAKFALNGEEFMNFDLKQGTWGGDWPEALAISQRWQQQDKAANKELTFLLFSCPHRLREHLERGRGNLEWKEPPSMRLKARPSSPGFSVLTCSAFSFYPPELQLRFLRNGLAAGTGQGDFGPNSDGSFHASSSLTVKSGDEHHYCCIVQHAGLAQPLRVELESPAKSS
Chain of UniProt P55899 (P61769 21-119 limits assumed, chain 2 of 2, further chain): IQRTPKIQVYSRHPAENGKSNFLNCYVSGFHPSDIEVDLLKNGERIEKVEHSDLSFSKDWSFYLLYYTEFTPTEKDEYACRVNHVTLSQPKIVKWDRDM

On to “RITUXAN (Genentech), non-fused anti-CD20Ab (antibody)”, for which the Kd worked out at 69.7 nM.
